These results are taken from PMC4726246.

Series [1] is described as follows: ratio of TEVC current to surface expression. The following applies: glycan lost; control: wild type.
A short description of series [2]: TEVC, co-expression in Xenopus oocytes, +40 mV. The following applies: glycan lost; control: TASK-3 WT alone.

B1: TASK-1: N53A (protein)
parent chain: MKRQNVRTLALIVCTFTYLLVGAAVFDALESEPELIERQRLELRQQELRARYNLSQGGYEELERVVLRLKPHKAGVQWRFAGSFYFAITVITTIGYGHAAPSTDGGKVFCMFYALLGIPLTLVMFQSLGERINTLVRYLLHRAKKGLGMRRADVSMANMVLIGFFSCISTLCIGAAAFSHYEHWTFFQAYYYCFITLTTIGFGDYVALQKDQALQTQPQYVAFSFVYILTGLTVIGAFLNLVVLRFMTMNAEDEKRDAEHRALLTRNGQAGGGGGGGSAHTTDTASSTAAAGGGGFRNVYAEVLHFQSMCSCLWYKSREKLQYSIPMIIPRDLSTSDTCVEQSHSSPGGGGRYSDTPSRRCLCSGAPRSAISSVSTGLHSLSTFRGLMKRRSSV
On to B1, for which, in series [1], the “other: conductivity (current / surface expression ratio)” value was “no change”. Besides, the “other: current of co-expressed TASK-3” value in series [2] is on record as “no change”.

B2: TASK-1: S55A (protein)
parent chain: B1 parent chain
B2: the “other: conductivity (current / surface expression ratio)” value in series [1] is given as “no change”.
